Data published in the nanobody polyreactivity screen of Harvey et al. (2022).

Assay: yeast display, Sf9 membrane polyspecificity reagent, FACS + sequencing; frameworks hold sequencing errors
Procedure, shortened: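 Polyreactivity labels are assigned by the sorting gate from which each nanobody was recovered. The gates were low and high (top ~1%), set on anti-HA fluorescence for expression and streptavidin fluorescence for reagent binding. Before sorting, galactose-induced (36–48 hours) yeast display cells were stained for 1 hour at 4 °C with 10% biotinylated, detergent-solubilized Sf9 membrane reagent.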

Sequence | polyreactivity (PSR sort gate)
QVQLVDSGGGLVQAGGSLRLTCAASGKIFVPNAMGWNRQAPGKERELVAAIRRGGSTNYADSVKGRFTISRDNAKNSVYLQMNSLKPEDTAVYYCAKSRVSFTDLVGYYWGQGTQVTVSS | low polyreactivity
QVQLVDSGGGLVQAGGSLRLTCAASGSTIYKNTMGWDRQGPGKERELVAAITRGGSTYYADSVKGRVTISRDNAKNTVYLQMNSLKPEDTAVYYCNTLTRHRYGYDYWGQGTQVTVSS | high polyreactivity
QVQLVDSGGGLVQAGGTLRLSCAASGRIFYRYAMGWYRQAPGKERELVASITRSGITHYADSVKGRFTISRDNAKNTVYLQMNSLKPEDTAVYYCKARRGSPAPYDYWGQGTQVTVSS | high polyreactivity
QVQLVDSGGGLVQAGGTLRLSCAASGSTLYFYAMGWYRLAPGKERELVAAITYIGGRTSYADSVKGRFTISRDNAKNTVYLQMNSLKPEDTAVYYCAAAPYGYRRYEYWGQGTQVTVSS | high polyreactivity
QVQLVDSGGGLVQAGVSLRLSCAASGSIFRGNAMGWYRQAPVKERELVAAINKSGGSTYYADSVKGRFTISRDNAKNTVYLQMNSLKQEDTAVYYCAAVYKRLQPYGYWGQGTQVTVSS | high polyreactivity
QVQLVDSGGGLVQAVGSLRLSCAASGRTFYANAMGWYRQAPGKERELVAAISSRSGTTHYADSVKGRFTISRDNAKNTVYLQMNSLKPEDTAVYYCNRQKWRLLTMGAHNRQAYDSWGQGTQVSVSS | low polyreactivity
QVQLVDSGGGLVQEGGSLRISCAASGFTFPRNAMGWYIQAPGKERELVAAINSGGGTNYADSVKGRFTISRDNAKNTVYLQMNSLKPEDTAVYYCAKDHGSFEMDYWGLGTQVTVSS | low polyreactivity
QVQLVDSGGGSVQAGGSLRLSCAASGSTFYENAMGWYRQAPGKERELVAAITWSGGRTYYADSVKGRFTISRDNAKNTVYLQMYSLKPEDTAVYYCNARERSRKFYYWGQGTQVTVSS | high polyreactivity
QVQLVDSGGVLFQAGVSLLISCYASGITFYSYALGRNRRAPGKDWELVASITKSSGRTYYADSVKGRFTISRDNAKTTVSLQMNSVKPEDTAVYYCKAYYVALPPNMDYWGQGTQVTVSS | high polyreactivity
QVQLVDSGGVLVQAGGSLRLSCAASGFTFRDYAMGWYRQAPGKERELVAAISRSGDSTYYADSVKGRFTISRDNAKNTVYLQMNSLKPEDTAVYYYAAKRRYTTYDYWGQGTQVTVSS | high polyreactivity
QVQLVDSGGYLVQAGGSLRLSCAASGTTSLFYAMGWYRQAPGKERELVAAISRTGSTHYADSVKGRFTIARANAKYTVYLQMNSLKAEDTAVYYCAAYYRYRSGRYYYWGQGTQVTVSS | high polyreactivity
QVQLVDSGRGLVQAGGSLRLSCAASGFTVGVNAMGWDRQAPGKERELVAAITRSGGTTYYADSVQGRFTISRDKAKNTVYLQMNSLKPEDTAVYYCNRRARSYADDYWGQGTQVTVSS | high polyreactivity
QVQLVDSGVGLVQAGGSLRLTCAASGITFYYYAMGWYRQAPGKERELVARISSGGSTNYSDSVNGRFTISRDNAKNTVYLQMISLKPEDTAVYYCAAVRHRAMDYWGQGTQVTVSS | low polyreactivity
QVQLVDSVGGLVQAGGTHRLSCAASGSIFEIYAMGWYRQAPGKERELVASITSSGGSTYYADSVKGRFTISRDYAKNTVYLQMNSLKPEDTAVYYCATDKRYGRTVRMDYWGQGTQVTVSS | low polyreactivity
QVQLVDSWGGLVQAGGSLRLSCAASGSIFYRKAMGCYRQAPGKERELFAAITRSDVRTYYADSVKGRFTISRDNAKNTVYLQMNSLKPEDTAVYYCAALEYGSYQHFGEDYWGQGSQVTVSS | low polyreactivity
QVQLVEAGGGFVQAGGSLRLSCAASGSIIVPYAMGWYRQPPGKESELVAAISSRGGRTYYADSVKGRFTISRENAMNSVYLQMNSLKPEDSAVYDCNKTGGSHIPRLEYWGQGTQVTVSS | low polyreactivity
QVQLVEAGGGLGQAGGSLRLSCAASGRILTPYARGWYRQAPGKERELVAANTSGGRTHYAHSVKGRFTMSRDNAKNTVYLQMNSLTPEDTAVYYCAARVRTGWWVRDDYWGQGTQVTLSS | high polyreactivity
QVQLVEAGGGLVQAGGRLRLSCAASGSIFRRNAMGWYRQAPGTERELVASISSSGGSTYYADSVKGRFTLSRDNAMNTVYLQMNSLKPEDTAVYYCNAYRIRPGTPYGNGYYYWGQGTQVTGSS | high polyreactivity
QVQLVEAGGGLVQAGGSLRISCAASGITFLSNAMGWYRQAPGKEMELVAVITIGGSTYYADSVKGRFTISRDNAKNTVFLQLNSLKPEDTAVYYCAVELVAVPDRRFNYWGQGTQVTVSS | low polyreactivity
QVQLVEAGGGLVQAGGSLRLSCAASGGIFSTYTMRWYRQAPGKERELVAAITTGNSTYYADSVKVRFTISRDNAKNTVYLQMNSLKPEDSAVYYCAAFADSRDYYRRLIHDGYDYWGQGTQVTVSS | low polyreactivity
QVQLVEAGGGLVQAGGSLRLSCAASGITFGDNAMGWYIQAPGKDRELVAAITLSDVDTYADSVKGRFTISRDNSKNTVYLQMISLKPEDTAVYDCAADYDFFSLYLYDYWGQGTQVTVSS | low polyreactivity

Sequence | polyreactivity (PSR sort gate)
QVQLVEAGGGLVQAGGSLRLSCAASGRIFRTYAMGWYRQAPGKESELVAAINISGDRTYYADSVKGRFTISRDHAKNTVYLQMNSLKPEDTAVYYCAAAGYRYWGAIYYWGQGTQVTVSS | high polyreactivity
QVQLVEAGGGLVQAGGSLRLSCAASGRTFKGYAMGWYRPAPGKERELVAAITKRGGSTYYADSVKGRFTISRDNAKNTVYLQMNSLKPEDTAVYYCNADKQGSRHGDDYWGQGTQVTVSS | high polyreactivity
QVQLVEAGGGLVQAGGSLRLSCAASGSIFAQNVRGWSRQAPGKERELVAAISYSGGTTYYADSVKGRFTISRDNAMNTVYLQMNSLKPEDTAVYDCAAEFGVYEYDYWGQGTQVTVSS | low polyreactivity
QVQLVEAGGGLVQAGGSLRLSCAASGSTFAGYAMGWYRQAPGKERELVATITYSGGSTYYADSVKGRFTISRDNAKNTVYLQMNSLKPEDTAVYYCAKKASYWWGYEYWGQGTQVTVSS | low polyreactivity
QVQLVEAGGGLVQAGGSLRLSCAASVSTLFFNAMGWYRQGTGKERELVAGITDGGNTNYADSVKGRFTISRDNAKNTVYIQMNSLKPEDTAVYYCATDGVNPFYAYDYWGQGTQVTVSS | low polyreactivity
QVQLVEAGGGLVQAGGSLRLSCAPSGFTFGSYARRCYRQAPGKERELVAAIRLSGGSTTYADSVKGRFTITRDNEKKTVYLQMNSLKAEDTAVYYCAARVHVGYYWTFYYWGQGTQVTVSS | high polyreactivity
QVQLVEAGGRLVQAAGSLRLSLAASAFNTTAMGWYRQAPGKDRELVAAITSDGDSTYYADSVKGRFTISRDNAQNTDYFQKNCVKPVDTAVYYCAADAVPTSVVYWGFYGMYWGQGTQVTVSS | low polyreactivity
QVQLVEAGRGLVQAGGSLRLSCAASGRTIDHYAMGWYRQAPGKERELVAAMSPTGGSTYYADSVKGRFTISRDNAKNSVYLQMNSLKPEDTAVYYCNARYYFYSATVDRYYHFYYWGQGTQVTVSS | high polyreactivity
QVQLVEKGGCLVQAGGSLSLSCAAYGRTFILNSMGCYRQAPWKEMELVAAISWSGGSTYYADSVKGRFTISRDNAKNTVYLQMNSLKPEDTAVYYCAAETYAYLFHTYDYWGQGTQVTVSS | low polyreactivity
QVQLVEKGGGLVQAGGSLRLSCAASGRTFQYYAMGWYRQAPGNERELVAAINQGGGRTYYADSVKGRFTISRDNAKNTVYLQMNSLKPEDTAVYYCAADGLSKFDYWGQGTQVTVSS | low polyreactivity
QVQLVEPGGGLVQAGGSLRLSCAASGSTFTLYAMGWYRQAPGKERELVATLTGSAGSTNYADSVKGRFTISRDNAKNTVYLQMNSLKPEDTAVYYCAKRVQQSTWYGYGIGYEYWGQGTQVTVSS | high polyreactivity
QVQLVEPGGGLVQAGGSLRLSCAASGSTFVEYDMGWYRQAPGKERELVAGINSGDRTNYADSVKGRFTISRDNEKNTVYLQMNSLKPEDTAVYYCAVDYRSYAYDYWGQGTQVSVSS | low polyreactivity
QVQLVESAAGLVQAGGSHRLSCAASGFTFDHYAMGWSRQEPGKESELVAAISKRGGTTYYADSVKGRFTISRDNAKNTVYLQTKSLKPEDTAVYYCNADVNNWEDDYYYWGQGTQVTVSS | high polyreactivity
QVQLVESAAGLVQAGGSLRLRCAASGRIFSDYAMGWYRQAPGKERELVATITSGDSTNYADSVKGRFTISGDNAKNTDYLQMNSLKPEDTAVYYCNADRFADYDYWGQGTQLTVSS | low polyreactivity
QVQLVESAAGLVQAGGSLRLSGAASGRIFRYNAMGGYRQAPGNERELVAAISSGGSTNYADSVKGRFTTSRDNAKNTVYLQMNSLKPEDTAVYYCNADSVHRYPGWGYDYWGLGTQVTVSS | low polyreactivity
QVQLVESAGGLDQAGGSLRLSCAASGSIFYIYAMGWYRQAPGKERELVATISGSGGSTHYADSVKGRFTISRDNAKNSVYLQKNSLKPEDTAVYYCAADVLPYGYYWGQGPQVTVSS | low polyreactivity
QVQLVESAGGLVQAAGSLRLSCAASGSIFSTNAMGWYRQAPGKERELVAAITYRGRTFYADSVKGRFTISRDNAKNTVYLQMNSLKPEDTAVYYCNAVGISWFGYLKAYVYWGKGTQVTVSS | high polyreactivity
QVQLVESAGGLVQAGASLRLSCDASGRIFPSNAMGWSRQAPGKERELVAAITSSGGSTYYADSVKGRFTISRDYAKNTVYLQMNSLKPEHTAVYYCPARFYSGPGGYTIYYWGQGTQVTVSS | high polyreactivity
QVQLVESAGGLVQAGASRRLSCAASGRTVSLYTMGWSRQSPGKESELVASITSSGSTSYADSVKGRFTISRDNAKNTVYLQMNSLKPEDTAVYYCNAAVSYPKYPYVSPGVPSYDYWGQGTQVTVSS | low polyreactivity
QVQLVESAGGLVQAGGILRLSCAASGSTFDSYGMGWYRQAPGKERELVASISVSGGGTYYADSVKGRFTISRDNAKNTVYLQMNSLKPEDTAVYYCNARYGNESQGWEDYWGQGTQVTVSS | low polyreactivity
